In article PMC3115021, “Dynamics of Cdk1 Substrate Specificity during the Cell Cycle” (Molecular Cell, 2011):

Legend:
Assay in all cases: Quantitative phosphorylation assay of T33-Sic1ΔC constructs and recombinant substrates
Assay type in all cases: biochemical
Conditions in all cases: Table S2; purified protein substrate; relative values, not divided by [S]
Clb2-Cdk1 = target: T1, Clb2-Cdk1 (Saccharomyces cerevisiae, UniProt P00546+P24869)
T1 construct: We purified the four cyclin-Cdk1 complexes from yeast; made in house; host or cells: S. cerevisiae strain DOM0077 (gal-CLB2-TAP, sic1 deleted); Cks1 from bacteria
T1 sequence (P00546 2-298 limits assumed): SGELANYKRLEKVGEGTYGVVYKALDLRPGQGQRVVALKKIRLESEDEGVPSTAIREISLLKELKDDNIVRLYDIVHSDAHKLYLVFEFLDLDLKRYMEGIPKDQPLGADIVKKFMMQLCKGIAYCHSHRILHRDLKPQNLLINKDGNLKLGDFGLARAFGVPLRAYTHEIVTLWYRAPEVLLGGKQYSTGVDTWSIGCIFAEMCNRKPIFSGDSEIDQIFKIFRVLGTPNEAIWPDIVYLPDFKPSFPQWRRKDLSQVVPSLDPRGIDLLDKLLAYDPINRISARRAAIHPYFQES
T1 sequence (P24869 2-491 partner limits assumed): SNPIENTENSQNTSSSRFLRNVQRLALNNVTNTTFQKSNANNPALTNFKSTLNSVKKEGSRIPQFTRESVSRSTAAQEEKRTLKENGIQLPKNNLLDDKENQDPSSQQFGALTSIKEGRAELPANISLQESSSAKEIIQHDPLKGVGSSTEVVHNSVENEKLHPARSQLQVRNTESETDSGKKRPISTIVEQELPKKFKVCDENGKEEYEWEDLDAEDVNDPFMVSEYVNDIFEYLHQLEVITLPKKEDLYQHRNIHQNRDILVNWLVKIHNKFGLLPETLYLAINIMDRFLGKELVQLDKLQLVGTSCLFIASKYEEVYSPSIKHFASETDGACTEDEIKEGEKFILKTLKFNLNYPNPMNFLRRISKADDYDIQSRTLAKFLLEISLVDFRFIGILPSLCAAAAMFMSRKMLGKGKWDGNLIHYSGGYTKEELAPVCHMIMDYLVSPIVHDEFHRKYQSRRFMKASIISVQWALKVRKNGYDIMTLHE
T1 sequence (P20486 whole entry partner): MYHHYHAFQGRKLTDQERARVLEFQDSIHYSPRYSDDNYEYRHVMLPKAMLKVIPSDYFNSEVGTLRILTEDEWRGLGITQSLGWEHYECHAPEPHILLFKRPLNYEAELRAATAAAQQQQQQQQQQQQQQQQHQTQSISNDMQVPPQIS
Method: (§1) For the quantitative phosphorylation assays of T33-Sic1ΔC constructs and recombinant substrates, substrate concentrations were kept in the range of 0.5–2 μM (in the linear [S] versus v0 range, several-fold below the estimated KM value), and initial velocity conditions were defined as an initial substrate turnover of up to 10% of the total turnover. For the steady-state peptide kinetics of the Histone peptide PKTPKKAKKL, a similar assay composition was used as for protein substrates, and phosphocellulose paper was used for the quantification of the phosphorylated substrate. […]
(§2) similar substrate specificity as the Cln2-Cdk1 version purified using a TAP-tag. N-terminally 6His-tagged recombinant T33-Sic1ΔC constructs and substrates were cloned into the pET28a vector and purified by standard cobalt affinity chromatography and elution with 200 mM imidazole. 6His-Fin1 was purified as described previously (Woodbury and Morgan, 2007). Substrates cloned into the pGEX-4T-1 were purified on glutathione agarose columns using 5 mM reduced glutathione for elution. Cks1 was purified as described previously (Reynard et al., 2000). The optimal working concentration for purified Cks1 was taken as 500 nM based on optimization performed for cyclin-Cdk1 preparations and T33-Sic1ΔC as a substrate.
(§3) For the quantitative phosphorylation assays of T33-Sic1ΔC constructs and recombinant substrates, substrate concentrations were kept in the range of 0.5-2 μM (in the linear [S] vs v0 range, several-fold below the estimated KM value), and the initial velocity conditions were defined as an initial substrate turnover ranging up to 10% of the total turnover. The latter was estimated by a long-term incubation with excess amounts of cyclin-Cdk1 and 32P-γ-ATP in the standard reaction mixture given below. About 1-10 nM of purified kinase complex was used, reaction aliquots were taken at two or more time points, and the reaction was stopped by SDS-PAGE sample buffer. The relative kcat/KM values for the substrates were calculated as the ratio of v0/[S], which was determined from at least two independent experiments. The basal composition of the assay mixture contained 50 mM Hepes, pH 7.4, 100 mM NaCl, 0.1% NP-40, 20 mM imidazole, 0.1 mg/ml 2HA peptide, 2% glycerol, 2 mM EGTA, 0.2 mg/ml BSA, […], and 500 μM ATP (with added 32P-γ-ATP (Perkin Elmer)).
(§4) About 1-10 nM of purified kinase complex was used, reaction aliquots were taken at two or more time points, and the reaction was stopped by SDS-PAGE sample buffer. For the steady-state peptide kinetics of the Histone peptide PKTPKKAKKL, a similar assay composition was used as for protein substrates and the standard phosphocellulose method was applied for the quantification of the phosphorylated substrate (Loog and Morgan, 2005). Synthetic peptides as competitor agents were used in 4 mM final concentrations. […]

Clb3-Cdk1 = target: T2, Clb3-Cdk1 (Saccharomyces cerevisiae, UniProt P00546+P24870)
T2 construct: We purified the four cyclin-Cdk1 complexes from yeast; made in house; host or cells: S. cerevisiae strain DOM0957 (gal-CLB3-TAP, sic1 deleted); Cks1 from bacteria
T2 sequence (P00546 2-298 limits assumed): as the sequence (P00546 2-298 limits assumed) above
T2 sequence (P24870 whole entry partner): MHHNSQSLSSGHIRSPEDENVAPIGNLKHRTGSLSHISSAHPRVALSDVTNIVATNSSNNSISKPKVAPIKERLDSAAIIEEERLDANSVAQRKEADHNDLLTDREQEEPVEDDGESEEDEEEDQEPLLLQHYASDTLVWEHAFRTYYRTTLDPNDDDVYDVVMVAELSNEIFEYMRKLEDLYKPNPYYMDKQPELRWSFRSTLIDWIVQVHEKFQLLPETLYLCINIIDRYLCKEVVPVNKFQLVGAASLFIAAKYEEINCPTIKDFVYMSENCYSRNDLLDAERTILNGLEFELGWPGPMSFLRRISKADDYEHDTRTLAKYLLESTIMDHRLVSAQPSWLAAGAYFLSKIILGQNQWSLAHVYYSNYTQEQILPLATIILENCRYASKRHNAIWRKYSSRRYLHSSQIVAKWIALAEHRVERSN
T2 sequence (P20486 whole entry partner): as the sequence (P20486 whole entry partner) above
Method: as §1, §2, §3, §4

Clb5-Cdk1 = target: T3, Clb5-Cdk1 (Saccharomyces cerevisiae, UniProt P00546+P30283)
T3 construct: We purified the four cyclin-Cdk1 complexes from yeast; made in house; host or cells: S. cerevisiae strain DOM0076 (gal-CLB5-TAP, sic1 deleted); Cks1 from bacteria
T3 sequence (P00546 2-298 limits assumed): as the sequence (P00546 2-298 limits assumed) above
T3 sequence (P30283 whole entry partner): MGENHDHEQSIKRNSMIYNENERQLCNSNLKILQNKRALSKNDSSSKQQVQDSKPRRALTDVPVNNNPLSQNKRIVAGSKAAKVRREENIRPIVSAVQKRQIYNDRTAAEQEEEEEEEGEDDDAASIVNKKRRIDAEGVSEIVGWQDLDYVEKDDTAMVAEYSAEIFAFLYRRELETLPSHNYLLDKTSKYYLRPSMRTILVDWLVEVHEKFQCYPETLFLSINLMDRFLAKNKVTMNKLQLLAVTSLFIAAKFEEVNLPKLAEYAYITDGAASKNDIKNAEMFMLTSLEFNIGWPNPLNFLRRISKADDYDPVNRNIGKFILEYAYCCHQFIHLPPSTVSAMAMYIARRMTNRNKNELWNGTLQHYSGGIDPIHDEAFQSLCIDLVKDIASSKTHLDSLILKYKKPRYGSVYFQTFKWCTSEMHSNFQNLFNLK
T3 sequence (P20486 whole entry partner): as the sequence (P20486 whole entry partner) above
Method: as §1, §2, §3, §4

Cln2-Cdk1 = target: T4, Cln2-Cdk1 (Saccharomyces cerevisiae, UniProt P00546+P20438)
T4 construct: We purified the four cyclin-Cdk1 complexes from yeast; made in house; host or cells: S. cerevisiae strain DMY305 (galactose-induced); Cks1 from bacteria
T4 sequence (P00546 2-298 limits assumed): as the sequence (P00546 2-298 limits assumed) above
T4 sequence (P20438 whole entry partner): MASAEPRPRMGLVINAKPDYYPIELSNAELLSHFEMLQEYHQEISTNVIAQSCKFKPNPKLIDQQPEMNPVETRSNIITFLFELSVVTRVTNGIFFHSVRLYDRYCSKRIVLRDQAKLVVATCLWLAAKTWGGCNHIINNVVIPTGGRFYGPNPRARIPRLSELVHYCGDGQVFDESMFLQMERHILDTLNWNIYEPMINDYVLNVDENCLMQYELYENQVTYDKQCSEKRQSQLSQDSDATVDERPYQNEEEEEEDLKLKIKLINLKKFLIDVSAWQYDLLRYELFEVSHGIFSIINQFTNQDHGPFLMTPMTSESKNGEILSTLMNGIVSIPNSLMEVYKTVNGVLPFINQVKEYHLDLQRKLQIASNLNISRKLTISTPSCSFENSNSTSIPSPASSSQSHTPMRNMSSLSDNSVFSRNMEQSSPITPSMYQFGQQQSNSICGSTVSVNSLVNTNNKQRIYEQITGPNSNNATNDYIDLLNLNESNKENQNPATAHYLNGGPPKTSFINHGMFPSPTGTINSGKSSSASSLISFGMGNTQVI
T4 sequence (P20486 whole entry partner): as the sequence (P20486 whole entry partner) above
Method: as §1, §2, §3, §4

Clb2hpm-Cdk1 = target: T5, Clb2hpm-Cdk1 (Saccharomyces cerevisiae, UniProt P00546)
T5 construct: made in house; host or cells: S. cerevisiae strain DOM0964 (gal-CLB2hpm-TAP, sic1 deleted); Cks1 from bacteria
T5 sequence (P00546 2-298 limits assumed): as the sequence (P00546 2-298 limits assumed) above
Method: (§5) For the quantitative phosphorylation assays of T33-Sic1ΔC constructs and recombinant substrates, substrate concentrations were kept in the range of 0.5–2 μM (in the linear [S] versus v0 range, several-fold below the estimated KM value), and initial velocity conditions were defined as an initial substrate turnover of up to 10% of the total turnover. For the steady-state peptide kinetics of the Histone peptide PKTPKKAKKL, a similar assay composition was used as for protein substrates, and phosphocellulose paper was used for the quantification of the phosphorylated substrate.
(§6) Supplemental Experimental Procedures
(§7) Plasmid constructs and yeast strains
(§8) For tandem affinity purification (TAP) of cyclin-Cdk1 complexes, the cyclin genes were cloned into the 2 micron vector pRSAB1234 containing a GAL1 promoter and the C-terminal TAP-tag. To purify different 6His-T33-Sic1ΔC forms for kinase assays, the C-terminally truncated fragment of Sic1 (with a stop codon inserted after amino acid 215) was cloned into the NheI/BamHI site of the bacterial expression vector pET28a (Invitrogen). Mutagenesis of cyclins or substrates was performed using single-stranded pRSAB1234 or pET28a vector constructs as templates. The triple mutants in the hydrophobic patch (hpm) of Clb5 and Clb2 were described previously (Loog and Morgan, 2005), and the hpm of Clb3 (Phe-201, Leu-205 and Trp-208 mutated to alanines) was designed according to sequence homology with other B-type cyclins. In T33-Sic1ΔC constructs, the other Cdk sites bearing the consensus motif S/T-P were mutated to Ala-Ala in order to prevent any possible (pseudo)substrate competition. The other Cdk substrates were cloned as full-length forms into bacterial expression vectors pET28a or pGEX-4T-1. Cdh1 was purified using the baculovirus system and was a kind gift from Monica Rodrigo-Brenni (UCSF). […]
The […]
(§9) pRSAB1234 analogously to the cyclin-Cdk1 complexes. For C-terminal tagging of cyclin genes in their chromosomal loci, the Pringle method was applied (Longtine et al., 1998). Lists of plasmid […]
(§10) The TAP method was applied for purification of cyclin-Cdk1 complexes and Swe1 as described previously for Clb5-TAP-Cdk1 and Clb2-TAP-Cdk1 (Puig et al., 2001; Ubersax et al., 2003). […]
as §2, with “tagged” for “similar substrate specificity as the Cln2-Cdk1 version purified using a TAP-tag. N-terminally 6His-tagged”
as §3
(§11) About 1-10 nM of purified kinase complex was used, reaction aliquots were taken at two or more […]

Clb3hpm-Cdk1 = target: T6, Clb3hpm-Cdk1 (Saccharomyces cerevisiae, UniProt P00546+P24870)
T6 construct: made in house; host or cells: S. cerevisiae strain MK0168 (gal-CLB3hpm-TAP, sic1 deleted); Cks1 from bacteria
Method: as §5, §6, §7, §8
The […]
as §9, §10
as §2, with “tagged” for “similar substrate specificity as the Cln2-Cdk1 version purified using a TAP-tag. N-terminally 6His-tagged”
as §3, §11

Clb5hpm-Cdk1 = target: T7, Clb5hpm-Cdk1 (Saccharomyces cerevisiae, UniProt P00546)
T7 construct: made in house; host or cells: S. cerevisiae strain DOM0963 (gal-CLB5hpm-TAP, sic1 deleted); Cks1 from bacteria
T7 sequence (P00546 2-298 limits assumed): as above
Method: as §5, §6, §7, §8
The […]
as §9, §10
as §2, with “tagged” for “similar substrate specificity as the Cln2-Cdk1 version purified using a TAP-tag. N-terminally 6His-tagged”
as §3, §11

B1: PDS1: GST-tagged purified yeast protein tested as Cdk1 substrate (protein, UniProt P40316 1-373, looked up)
Securin: MMPANEDKENNIVYTGNESSGINFPQTPAHLLKRSHSNILKPPVRLDQLKRDANSNNGNTLKYIQGGKEVSPTKRLHTHAQQQGRLPLAAKDNNRSKSFIFPETSNQSKDADLPQLQNTLSIRKNDQLRKLSQISRSRSRANHNDLLSNSRKLQKYGSVLGYNALPKMKSLVLKDLADSGKNEESSDDDEGNEDSESKLGKKLQSALLKQDSSDGENELNGGLGLFNEQGGLQQLIKNSTKNEQKTKNDKSDKTDDYDIEIAPQRQEPLPYVPEGYSPFQQDDIEKLKTFNSPYKLDLEDEDDTPDKVDLLPLEQIDEEGEKDETECITRNQEEGAALPLLSKNFKEVAAVPTMELVYSEEGLDPEELEDLVT
modifications: GST tag
notes: GST-tagged purified yeast protein tested as Cdk1 substrate
For B1, which “kcat/KM, Clb2” value (Clb2-Cdk1) is on record?
Its value is 0.049 relative units.

What about the “kcat/KM, Clb3” value (Clb3-Cdk1) of the same molecule?
The value was 0.015 relative units.

What about the “kcat/KM, Clb5” value (Clb5-Cdk1) of the same molecule?
Its value is 0.008 relative units.

What about the “kcat/KM, Cln2” value (Cln2-Cdk1) of the same molecule?
Its value is 0.249 relative units.

What about the “kcat/KM, Clb2hpm” value (Clb2hpm-Cdk1) of the same molecule?
Its value is 0.035 relative units.

What about the “kcat/KM, Clb3hpm” value (Clb3hpm-Cdk1) of the same molecule?
Its value is 0.005 relative units.

And the “kcat/KM, Clb5hpm” value (Clb5hpm-Cdk1)?
The value was 0.002 relative units.

B2: ORC6: purified yeast protein tested as Cdk1 substrate (protein, UniProt P38826 1-435, looked up)
Origin recognition complex …: MSMQQVQHCVAEVLRLDPQEKPDWSSGYLKKLTNATSILYNTSLNKVMLKQDEEVARCHICAYIASQKMNEKHMPDLCYYIDSIPLEPKKAKHLMNLFRQSLSNSSPMKQFAWTPSPKKNKRSPVKNGGRFTSSDPKELRNQLFGTPTKVRKSQNNDSFVIPELPPMQTNESPSITRRKLAFEEDEDEDEEEPGNDGLSLKSHSNKSITGTRNVDSDEYENHESDPTSEEEPLGVQESRSGRTKQNKAVGKPQSELKTAKALRKRGRIPNSLLVKKYCKMTTEEIIRLCNDFELPREVAYKIVDEYNINASRLVCPWQLVCGLVLNCTFIVFNERRRKDPRIDHFIVSKMCSLMLTSKVDDVIECVKLVKELIIGEKWFRDLQIRYDDFDGIRYDEIIFRKLGSMLQTTNILVTDDQYNIWKKRIEMDLALTEPL
With B2 as the molecule, how does the “kcat/KM, Clb2” value (Clb2-Cdk1) read?
Its value is 0.009 relative units.

What about the “kcat/KM, Clb3” value (Clb3-Cdk1) of the same molecule?
The value was 0.018 relative units.

And the “kcat/KM, Clb5” value (Clb5-Cdk1)?
Its value is 0.029 relative units.

What about the “kcat/KM, Cln2” value (Cln2-Cdk1) of the same molecule?
The value was 0.002 relative units.

What about the “kcat/KM, Clb2hpm” value (Clb2hpm-Cdk1) of the same molecule?
Its value is 0.005 relative units.

And the “kcat/KM, Clb3hpm” value (Clb3hpm-Cdk1)?
The value was 0.002 relative units.

What about the “kcat/KM, Clb5hpm” value (Clb5hpm-Cdk1) of the same molecule?
The value was 0.001 relative units.

B3: PLM2: purified yeast protein tested as Cdk1 substrate (protein, UniProt Q04383 1-521, looked up)
Protein PLM2: MSHLFPPSSPVAGKPLESPQKEPGKLANTSVLTLGRKRYNYELEEYPTPDPSSSIGRQSSPVKDITSRLNETKSALSSPSKQEKVLAGPIEIELDASDPSRLAIGRKKSVCNIILPCRKNISRQHAFISYAADRNEIKLECNGTNGLSVHLPYSMQLHLVKPFPTRNFYKLVAEEPLTSQNTKQSHGKTLQKNQNFISFVLAKGETVTFPYIQGSFINFTGVTVCLSLKKVAPYPGDGNNNFDEENSTETEDELCLLTTTSDDFSWQKETPSMKFVPVEHSPRTEQISKPLLIASPALVKNSPISYRTTPQTSFVINQPSTPKKLKRKSISLKNNTIQETPLPKDKIIGTLSASTRSGGINEEESFAAVAKKTKELSSTTAIVSPAQKRLKTSLNIIPEISRSLSERGIRFDDLVHVLCNHLAFSNLQQTPLSQLQNINSNTSQLSKDELKKVLETISCIGIIVREGKDASGKPLEDEYYYDVENDDSDERKILYNSLKGRSRLRSCRKKHKQYFWKRPTK
Which “kcat/KM, Clb2” value (Clb2-Cdk1) does the source give for B3 here?
Its value is 9.072 relative units.

And the “kcat/KM, Clb3” value (Clb3-Cdk1)?
The value was 9.051 relative units.

What about the “kcat/KM, Clb5” value (Clb5-Cdk1) of the same molecule?
Its value is 1.724 relative units.

And the “kcat/KM, Cln2” value (Cln2-Cdk1)?
Its value is 0.428 relative units.

What about the “kcat/KM, Clb2hpm” value (Clb2hpm-Cdk1) of the same molecule?
The value was 6.351 relative units.

And the “kcat/KM, Clb3hpm” value (Clb3hpm-Cdk1)?
The value was 1.144 relative units.

What about the “kcat/KM, Clb5hpm” value (Clb5hpm-Cdk1) of the same molecule?
The value was 0.428 relative units.

B4: ORC2: purified yeast protein tested as Cdk1 substrate (protein, UniProt P32833 1-620, looked up)
Origin recognition complex …: MLNGEDFVEHNDILSSPAKSRNVTPKRVDPHGERQLRRIHSSKKNLLERISLVGNERKNTSPDPALKPKTPSKAPRKRGRPRKIQEELTDRIKKDEKDTISSKKKRKLDKDTSGNVNEESKTSNNKQVMEKTGIKEKREREKIQVATTTYEDNVTPQTDDNFVSNSPEPPEPATPSKKSLTTNHDFTSPLKQIIMNNLKEYKDSTSPGKLTLSRNFTPTPVPKNKKLYQTSETKSASSFLDTFEGYFDQRKIVRTNAKSRHTMSMAPDVTREEFSLVSNFFNENFQKRPRQKLFEIQKKMFPQYWFELTQGFSLLFYGVGSKRNFLEEFAIDYLSPKIAYSQLAYENELQQNKPVNSIPCLILNGYNPSCNYRDVFKEITDLLVPAELTRSETKYWGNHVILQIQKMIDFYKNQPLDIKLILVVHNLDGPSIRKNTFQTMLSFLSVIRQIAIVASTDHIYAPLLWDNMKAQNYNFVFHDISNFEPSTVESTFQDVMKMGKSDTSSGAEGAKYVLQSLTVNSKKMYKLLIETQMQNMGNLSANTGPKRGTQRTGVELKLFNHLCAADFIASNEIALRSMLREFIEHKMANITKNNSGMEIIWVPYTYAELEKLLKTVLNTL
What does the source list for B4?
kcat/KM, Clb2 (Clb2-Cdk1): 0.018 relative units; kcat/KM, Clb3 (Clb3-Cdk1): 0.132 relative units; kcat/KM, Clb5 (Clb5-Cdk1): 0.405 relative units; kcat/KM, Cln2 (Cln2-Cdk1): 0.073 relative units; kcat/KM, Clb2hpm (Clb2hpm-Cdk1): 0.067 relative units; kcat/KM, Clb3hpm (Clb3hpm-Cdk1): 0.028 relative units; kcat/KM, Clb5hpm (Clb5hpm-Cdk1): 0.012 relative units
